Measured values reported in paper PMC3784511.

Target: T1, NF-kB p50 homodimer (UniProt P19838)
T1 sequence: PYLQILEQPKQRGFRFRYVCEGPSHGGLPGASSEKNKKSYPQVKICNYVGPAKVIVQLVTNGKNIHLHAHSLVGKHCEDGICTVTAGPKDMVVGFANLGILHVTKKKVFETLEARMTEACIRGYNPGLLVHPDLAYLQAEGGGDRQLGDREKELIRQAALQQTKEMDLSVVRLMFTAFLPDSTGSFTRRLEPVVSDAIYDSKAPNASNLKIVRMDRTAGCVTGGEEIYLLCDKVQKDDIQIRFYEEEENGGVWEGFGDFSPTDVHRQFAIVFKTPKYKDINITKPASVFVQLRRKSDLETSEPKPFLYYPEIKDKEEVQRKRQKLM
Test: UV laser footprinting
Conditions: 10 mM Tris pH 7.4, 75 mM NaCl, 1 mM EDTA, 1 mM DTT, 100 ug/ml BSA, 0.01% NP40 (omitted in dilution experiments), 5% glycerol, 37 C; naked DNA supplemented with …

Sequence: GCTCGGAATTCTATCCGACTGGCACCGGCAAGGTCGCTGTTCAATACATGCACAGGATGTATATATCTGACACGTGCCTGGAGACTAGGTAGTAATTCTCTTGGCGGTTAAAACGCGGTGTACAGCGCGTACGTGCGTTTAAGCGGTGCTAGAGCTTGCTACGACCAATTGAGCGGCCTCGGCACGGGGATTCCCCAGGTCGGCCGCGTATAGTGTCCATCACATAAGTGATGAACTCGGTCTTAAGAATCATGC (double strand) [601_D7 DNA (255 bp)]
- Kd: 14 nM
